{"source": "patent US20100216667A1", "about": "“METHOD FOR DETERMINING COMPATIBILITY OF AN ACTIVE PHARMACEUTICAL INGREDIENT WITH MATERIALS” (priority 2008, published 2010)", "origin": "cited, not measured here", "settings": "pre-filled syringes with uncoated stoppers and Polysorbate-80", "data": [{"substance": "EPREX: marketed product whose active ingredient is erythropoietin", "values": [{"measurement": "Pure red cell aplasia (PRCA) in treated patients", "result": "increase in pure red cell aplasia (PRCA)"}]}]}
